From patent publication US20080260731A1

Biological target: human V158 FcγRIIIa (FcγR-His) (human) (UniProt P08637)
Experiment: Biacore SPR

Chain of human V158 FcγRIIIa (FcγR-His) (human) (P08637 17-208 F176V limits assumed): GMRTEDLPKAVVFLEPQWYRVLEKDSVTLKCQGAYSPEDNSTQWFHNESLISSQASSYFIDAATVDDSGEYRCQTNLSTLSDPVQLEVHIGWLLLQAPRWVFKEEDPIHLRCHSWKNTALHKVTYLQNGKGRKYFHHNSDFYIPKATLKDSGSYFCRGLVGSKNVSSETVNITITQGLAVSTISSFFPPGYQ

4G7 IgG1 antibody (chimeric, murine H0/L0 variable regions on human IgG1/kappa)
Kd: 240 nM
